From patent US20030114646A1 (Human Genome Sciences, published 2003)

Biological target: T1, papain (UniProt P00784 134-345)
T1 sequence (looked up): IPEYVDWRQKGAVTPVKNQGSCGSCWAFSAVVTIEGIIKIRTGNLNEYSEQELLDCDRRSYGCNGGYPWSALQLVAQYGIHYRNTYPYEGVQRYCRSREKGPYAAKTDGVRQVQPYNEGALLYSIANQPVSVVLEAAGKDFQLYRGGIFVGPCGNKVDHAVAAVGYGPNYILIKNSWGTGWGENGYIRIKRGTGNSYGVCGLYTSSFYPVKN
Experiment: reversible inhibition of papain activity, Ki corrected for substrate competition (Km=60 µM)

B1: human Cystatin F (recombinant, produced in a baculovirus system) (other)
chain: GPSPDTCSQDLNSRVKPGFPKTIKTNDPGVLQAARYSVEKFNNCTNDMFLFKESRITRALVQIVKGLKYMLEVEIGRTTCKKNQHLRLDDCDFQTNHTLKQTLSCYSEVWVVPWLQHFEVPVLRCH
notes: 20-145 is used here; also called recombinant Cystatin F
- Ki: 1.05 nM
